The supplement of paper PMC10567573

B1: POLD4 (parent)
chain: ITDSYPVVKRREGPAGHSKGELAP
B2: ZNF263 (parent)
chain: PEASHLRFRRFRFQEAAGPREALS

Variants of: B1
Test: protein stability index of a GFP-peptide fusion (GPS, HEK-293T) (PSI 1-6); higher = more stable
Conditions: c terminus: a fixed tail appended
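Further: lentivirally expressed fusions sorted by FACS into six bins by GFP to DsRed ratio, PSI derived from sequencing read proportions per bin multiplied by bin number.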

Protein stability index of substitutions, site by site:
P24: M 2.89 | N 3.62 | Q 4.1 | R 2.77 | S 3.93 | V 2.19 | W 2.73 | Y 2.38

Variants of: B2
Test: as above
Conditions: c terminus: a fixed tail appended

Protein stability index, by site and new letter:
P1: A 1.75 | C 1.96 | D 2.65 | E 2.97 | F 3.44 | G 2.8 | H 2.16 | I 2.71 | K 2.38 | L 2.53 | M 2.73 | N 2.13 | Q 2.79 | R 2.97 | S 3.74 | T 2.44 | V 1.85 | W 2.08 | Y 2.3
E2: A 2.88 | C 1.08 | D 3.22 | F 1.73 | G 2.12 | H 2 | I 1.72 | K 2.83 | L 1.29 | M 1.75 | N 2.52 | Q 2.11 | R 2.84 | S 2.52 | T 2.4 | V 2.12 | W 1.52 | Y 1.82
A3: C 2.95 | D 3.1 | E 2.82 | F 2.8 | G 2.95 | H 2.84 | I 2.52 | K 2 | L 2.4 | M 3.55 | N 1.98 | P 2.87 | Q 2.55 | R 2.71 | S 2.59 | T 2.52 | V 1.73 | W 1.97 | Y 2.38
S4: A 2.4 | C 2.87 | D 2.92 | E 2.97 | F 1.87 | G 2.76 | H 2.04 | I 1.7 | K 2.04 | L 1.83 | M 3.15 | N 2.8 | P 3.78 | Q 2.19 | R 2.19 | T 2.76 | V 1.93 | W 3.12 | Y 2.83
H5: A 2.61 | C 2.55 | D 3.21 | E 2.47 | F 2.12 | G 2.44 | I 1.91 | K 1.77 | L 2.74 | M 3.39 | N 2.31 | P 1.49 | Q 3.04 | R 2.68 | S 2.29 | T 2.89 | V 2.15 | W 2.44 | Y 1.95
L6: A 3.3 | C 2.6 | D 3.62 | E 3.61 | F 2.75 | G 3.46 | H 3.46 | I 2.42 | K 2.73 | M 2.54 | N 3.03 | P 3.03 | Q 3.63 | R 3.06 | S 3.23 | T 1.98 | V 3.36 | W 2.37 | Y 1.66
R7: A 3.14 | C 2.5 | D 2.78 | E 3.26 | F 2.28 | G 3.45 | H 2.93 | I 1.8 | K 2.92 | L 2.08 | M 2.84 | N 3.08 | P 2.35 | Q 2.75 | S 2.68 | T 3.66 | V 2.65 | W 3.63 | Y 2.36
F8: A 3.28 | C 2.69 | D 3.08 | E 3.98 | G 3.29 | H 3.23 | I 3.43 | K 3.29 | L 2.84 | M 2.8 | N 3.46 | P 3.04 | R 3.55 | S 3.21 | T 3.4 | V 3.06 | W 1.94 | Y 2.76
R9: A 3.18 | C 2.44 | D 2.69 | E 2.21 | F 2.29 | G 3.36 | H 1.98 | I 1.69 | K 2.82
